One assay deals with primary patient MM cells. Briefly: SCID-hu mouse model of multiple myeloma. The class given is in vivo. Here is the method:
Bone marrow cells (>20% plasma cells) from myeloma patients (two patients in experiment 1 [top panel] and two different patients in experiment 2 [lower panel]) were injected into transplanted human fetal bones of SCID-hu mice. Four weeks after myeloma cell inoculation mice were divided into four groups to yield similar mean hIgG levels between groups, each group comprising mice grafted with MM cells from the different patient donors used in the experiment, and twice weekly treatment with 2 mg/kg BI-505, 1 mg/kg bortezomib or 2 mg/kg control human IgG was started (arrow). […] Graphs show mean hIgG concentrations.
Primary human MM cells depend on interactions with bone marrow stromal cells to proliferate and survive. The SCID-hu mouse harbors a human microenvironment where primary patient MM cells proliferate and induce pathology similar to human clinical MM (Yaccoby et al., 1998). MM cell derived human IgG titers were detected (>10 μg/ml) in the serum of SCID-hu mice four weeks after implantation of human MM cells to transplanted human bones, at which time treatment with antibodies (2 mg/kg) or bortezomib (1 mg/kg) began. Human IgG titers increased steadily in control treated SCID-hu mice over the course of experimentation to reach maximal concentrations of 40±5 μg/ml just before sacrifice (FIG. 18B and FIG. 19). […] Two independent experiments were performed with similar results (FIG. 18B and FIG. 19), each with MM cells from two different patient donors (n=4).
Human fetal femurs and tibias, obtained at 17 to 22 gestational weeks, were cut into fragments and implanted subcutaneously in SCID mice (SCID-hu) at age 6 to 8 weeks. Each animal was implanted with one bone fragment. Four weeks after bone implantation, 2 to 14×10^6 bone marrow cells from each patient (two patients per experiment for a total of four patients in two independent experiments, n=4), containing>20% plasma cells were injected directly into the human bone of 6 to 8 SCID-hu mice in a final volume of 30 to 40 μl of phosphate-buffered saline (PBS). One group of mice was implanted with bone only and served as “healthy” bone control. Mouse sera were serially monitored for human immunoglobulin (hIg) and the isotype levels were used as an indicator of myeloma cell growth by elisa. When hIg level reached 10 μg/mL or higher in 2 consecutive measurements after 4 weeks of injection of the tumor cells, the mice were divided into four groups to yield similar mean hIgG levels between groups, each group comprising mice grafted with MM cells from the different patient donors used in each experiment. The four treatment groups were: healthy control group (no myeloma cells injected and no drug treatment), isotype control group (myeloma cells injected and treated with isotype control IgG, 2 mg/kg, i.p., twice weekly), BI505 group (myeloma cells injected and treated with BI505, 2 mg/kg, i.p., twice weekly) and bortezomib group (myeloma cells injected and treated with 1 mg/kg, i.p., twice weekly). In some graphs hIgG levels were normalized to pretreatment (4 weeks) levels and the percent increase or decrease in hIgG levels as a function of treatment and time was analyzed. Normalized data from animals receiving the same treatment (control IgG, BI-505 or bortezomib) but grafted with MM cells from each of the four different patient donors in the two experiments were pooled and statistical difference was assessed by grouped 2-way ANOVA test and Bonferroni's posttest using GraphPad Prism 5 software. Patient myeloma cells were taken after informed consent and with the approval of the local ethics committee. For x-radiography evaluation and quantification of bone mineral density (BMD) mice in the four groups were sacrificed and the implanted human bones were taken out and fixed in 10% formalin solution. Radiographs were taken with an AXR Minishot-100 beryllium source instrument (Associated X-Ray Imaging Corp., Haverhill, Mass., USA) and 100 s exposure at 30 kV. […]

Assay [1] has as its system primary patient's MM cells. Briefly: Macrophage ADCP. In kind it is cell-based. The settings on record: human macrophages. On the procedure: (§1) Cultured macrophages were detached and plated in flat 96-well plates at 50 000 cells/well and placed in 37° C. CFSE-stained target cells were incubated with antibodies for up to 1 hr on ice. After washing, the different cell solutions were added to the culture plates containing macrophages at a ratio of 5:1 (Target cells:Macrophages). Thereafter, the culture plates were incubated at 37° C. for 1-2 hr (primary patient MM cells) or 16 hr (RPMI-8226 cells). The percentage of macrophages that had phagocytosed tumor cells (CFSE^+, CD206^+) per total analyzed macrophages was determined following gating and acquisition of 5000 CD206^+ cells/sample.
(§2) Buffy coats from healthy human donors were ordered through the local blood central at Lund University Hospital and Halmstad Hospital. Peripheral blood mononuclear cells (PBMCs) were first extracted using Ficoll-Paque PLUS (GE Healthcare Life Sciences), followed by isolation of monocytes with CD14 MicroBeads and MACS separation (Miltenyi Biotec). The monocytes were cultured in RPMI 1640 medium with 10% heat-inactivated FBS (Invitrogen) and 25 ng/mL of recombinant human M-CSF (R&D Systems) for 6-14 days, causing differentiation into macrophages. Medium with M-CSF was changed every 2-3 days upon initiation of cultures.
(§3) RPMI-8226 cells (ATCC) were continuously cultured in RPMI 1640 medium supplemented with 10 mM HEPES, 1 mM sodium pyruvate and 10% FBS. For multiple myeloma cells, freshly isolated bone marrow samples were donated by patients at Lund University Hospital and subsequently processed with Ficoll-Paque PLUS. Negative isolation of malignant plasma cells was then performed using the Plasma Cell Isolation Kit II according to the manufacturer's instructions (Miltenyi Biotec).
(§4) At least 4 h before co-culture with target cells the cultured macrophages were detached with Accutase (Sigma Aldrich), before plated in flat 96-well plates at 50 000 cells/well and placed in 37° C. […] After washing, the different cell solutions were added to the culture plates containing macrophages at a ratio of 5:1 (Target cells:Macrophages). Thereafter, the culture plates were incubated at 37° C. for 1-2 hr (primary patient MM cells) or 16 hr (RPMI-8226 cells). Next, samples were stained with APC-conjugated anti-CD206 antibody (BD Biosciences), before harvested by scraping the culture plate wells. The resulting cell solutions were then analyzed by flow cytometry, where CD206^+ macrophages were gated and acquired at 5000 cells/sample. A cut-off level identifying CFSE^+, CD206^+ double positive (phagocytic) macrophages was set for each experimental sample series. This level differed between the individual assays since the magnitude of basic (unstimulated) phagocytosis varied (different donors and time-points) among the experiments.

The subject of the next assay is RPMI-8226 cells. Briefly: Macrophage ADCP. The class given is cell-based. The following applies: RPMI-8226, human macrophages. Here is the method:
as §1, §2, §3, §4

B1: B11: fully human IgG1 antibody specific for ICAM-1; VH and VL sequences of FIG. 10 (SEQ ID NOs. 6 and 8) (antibody, listed as Homo sapiens, V domains shown)
VH: EVQLLESGGGLVQPGGSLRLSCAASGFTFSNAWMSWVRQAPGKGLEWVAFIWYDGSNKYYADSVKGRFTISRDNSKNTLYLQMNSLRAEDTAVYYCARYSGWYFDYWGQGTLVTVSS
VL: QSVLTQPPSASGTPGQRVTISCTGSSSNIGAGYDVHWYQQLPGTAPKLLIYDNNNRPSGVPDRFSGSKSGTSASLAISGLRSEDEADYYCQSYDSSLSAWLFGGGTKLTVLG
Regarding B1, in the assay on primary patient MM cells (2 mg/kg twice weekly from four weeks after MM cell implantation), the “serum hIgG relative to pre-treatment levels” value is reported as 91±22%. The “bone osteoclasts” value in the assay on primary patient MM cells (TRAP staining, compared to control-treated mice) is listed as “reduced numbers of bone osteoclasts”. Further, the “bone mineral density” value in the assay with primary patient MM cells (X-radiography of implanted human bones) is listed as “decreased loss of bone mineral density”. For the same molecule, the “serum human IgG levels” value in the assay on primary patient MM cells (antibody 2 mg/kg or bortezomib 1 mg/kg twice weekly) was “halted or reduced serum human IgG levels to below pre-treatment levels”. In addition, the “tumor burden in human bone implants” value with primary patient MM cells (human CD138 immunohistochemistry) is recorded as “decreased tumor burden”. Moreover, the “ADCP” value (in assay [1]; in the assay on RPMI-8226 cells) was “conferred ADCP” in each case.

(Values after patent publication US9803013B2, “Biological materials and uses thereof” (BioInvent International AB, priority 2005, dated 2017).)
